± gives the standard deviation of the averaged measurements.
Each sequence was assayed on ATP (assay: switch fluorescence ratio, 500 uM ATP over buffer (Cy3 cluster intensity, sum of 5 cycles each) (fold (ratio)); higher = stronger signal-on switching upon ATP binding; sequences stand for … in TCGTCGGCAGCGTCAGATGTGTATAAGAGACAGTTTTTTTTTTTTTTTTTTTTTTTTT…TC). Details: aptamer strand: ATP DNA aptamer (quencher-CACCTGGGGGAGTATTGCGGAGGAAGG + anchor), 100 nM annealed; ATP concentration: 500 uM.
Procedure, shortened: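 Clusters carrying Cy3-labelled switching strands on a modified Illumina MiSeq flow-cell were annealed to 100 nM quencher-labelled ATP aptamer and imaged in selection buffer. They were imaged again after 15 min with 500 uM ATP at 22 °C, over five buffer/ATP cycles with NaOH stripping and re-annealing in between. For each cluster, the fluorescence ratio is the summed Cy3 intensity of the target cycles divided by that of the buffer cycles, averaged per switch-domain sequence. Clusters outside 100-1000 RFU were left out.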
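Further: ATP exposure 15 min at 22 °C before imaging.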

| Sequence | switch fluorescence ratio |
| --- | --- |
| GATGGTTCGC | 0.976 ± 0.015 |
| GATGTAGGAT | 0.978 ± 0.014 |
| GATGTAGGGA | 1.02 ± 0.029 |
| GATGTATATG | 0.992 ± 0.018 |
| GATGTATGTT | 0.978 ± 0.037 |
| GATGTCAGGT | 1.03 ± 0.044 |
| GATGTCCCAG | 1 ± 0.017 |
| GATGTCGTTT | 1.02 ± 0.049 |
| GATGTCTGTT | 0.955 ± 0.021 |
| GATGTGCAAA | 1.01 ± 0.022 |
| GATGTGCCAG | 0.969 ± 0.017 |
| GATGTGCGAG | 1.01 ± 0.017 |
| GATGTGGGGC | 0.996 ± 0.029 |
| GATGTGTAGA | 0.999 ± 0.018 |
| GATGTGTGTT | 0.9735 ± 0.0089 |
| GATGTTAGGT | 0.996 ± 0.023 |
| GATGTTCGTG | 0.994 ± 0.014 |
| GATGTTGCGT | 1.018 ± 0.004 |
| GATGTTGGAA | 0.997 ± 0.034 |
| GATGTTTGAG | 0.991 ± 0.017 |
| GATGTTTGGC | 1.05 ± 0.013 |
| GATGTTTGGG | 0.987 ± 0.019 |
| GATGTTTGGT | 0.99 ± 0.021 |
| GATGTTTTGA | 1 ± 0.018 |
| GATTAAAACT | 1.07 ± 0.025 |

| Sequence | switch fluorescence ratio |
| --- | --- |
| GATTAAAATT | 0.951 ± 0.064 |
| GATTAAGGGT | 1.04 ± 0.03 |
| GATTAATAAG | 1.16 ± 0.26 |
| GATTAATCTG | 0.962 ± 0.015 |
| GATTAATGAG | 1.01 ± 0.027 |
| GATTACATGC | 1.01 ± 0.037 |
| GATTACTTTG | 0.9562 ± 0.0039 |
| GATTAGAGGG | 0.9877 ± 0.0081 |
| GATTATTAGC | 0.9999 ± 0.004 |
| GATTATTAGT | 1.012 ± 0.01 |
| GATTATTCTT | 1.03 ± 0.035 |
| GATTATTGGA | 1.01 ± 0.026 |
| GATTATTTGG | 0.986 ± 0.011 |
| GATTCAAGTG | 0.96 ± 0.022 |
| GATTCAGGAC | 1.04 ± 0.012 |
| GATTCATTAT | 0.988 ± 0.011 |
| GATTCCTATC | 0.996 ± 0.039 |
| GATTCGAATC | 1 ± 0.034 |
| GATTCGATCT | 0.993 ± 0.024 |
| GATTCTATAG | 0.988 ± 0.036 |
| GATTGAAAGG | 0.957 ± 0.0097 |
| GATTGAATAA | 0.997 ± 0.019 |
| GATTGACCCT | 1.048 ± 0.0092 |
| GATTGACGGC | 1 ± 0.045 |
| GATTGACGTG | 0.957 ± 0.08 |

| Sequence | switch fluorescence ratio |
| --- | --- |
| GATTGAGCGG | 1.01 ± 0.018 |
| GATTGATTTA | 1 ± 0.021 |
| GATTGCAGTA | 0.983 ± 0.036 |
| GATTGCCGCG | 1 ± 0.047 |
| GATTGCCGTG | 1.03 ± 0.024 |
| GATTGCGGTC | 1.03 ± 0.016 |
| GATTGCTGGT | 0.9513 ± 0.0046 |
| GATTGGATCG | 0.9904 ± 0.0051 |
| GATTGGCGCG | 1.006 ± 0.0031 |
| GATTGGGCTC | 1.02 ± 0.036 |
| GATTGGGGCT | 1.02 ± 0.039 |
| GATTGGGTGT | 1.03 ± 0.054 |
| GATTGGTATT | 0.995 ± 0.044 |
| GATTGGTTCC | 1.05 ± 0.036 |
| GATTGTAGGT | 1 ± 0.015 |
| GATTGTGATG | 0.9724 ± 0.0055 |
| GATTGTGTG | 0.998 ± 0.03 |
| GATTTAATAG | 0.9625 ± 0.0076 |
| GATTTAATCC | 0.974 ± 0.032 |
| GATTTACTGG | 1.04 ± 0.024 |
| GATTTAGACG | 0.945 ± 0.06 |
| GATTTAGATT | 1 ± 0.046 |
| GATTTATATC | 0.993 ± 0.028 |
| GATTTCAGCT | 0.997 ± 0.019 |
| GATTTCATG | 0.993 ± 0.019 |

| Sequence | switch fluorescence ratio |
| --- | --- |
| GATTTCTCGT | 0.9551 ± 0.0021 |
| GATTTGACGG | 0.983 ± 0.022 |
| GATTTGATTT | 0.991 ± 0.037 |
| GATTTGCAGG | 0.983 ± 0.033 |
| GATTTGCATC | 1.03 ± 0.025 |
| GATTTGCTTT | 0.98 ± 0.013 |
| GATTTGGAGC | 0.9911 ± 0.0076 |
| GATTTGGAGT | 0.985 ± 0.018 |
| GATTTGGCTG | 0.986 ± 0.019 |
| GATTTGGGT | 0.997 ± 0.051 |
| GATTTGGTCA | 0.9976 ± 0.0034 |
| GATTTGGTCT | 1.04 ± 0.035 |
| GATTTGTAAA | 0.99 ± 0.029 |
| GATTTGTGAC | 0.977 ± 0.052 |
| GATTTGTGGG | 0.994 ± 0.024 |
| GATTTGTTAG | 0.977 ± 0.022 |
| GATTTTACGA | 0.994 ± 0.052 |
| GATTTTAGTA | 1.01 ± 0.033 |
| GATTTTCGTA | 0.985 ± 0.025 |
| GATTTTCGTC | 0.996 ± 0.032 |
| GATTTTGGGA | 0.9815 ± 0.0068 |
| GATTTTGTAA | 1.012 ± 0.004 |
| GATTTTGTGG | 0.971 ± 0.02 |
| GATTTTGTTC | 1.03 ± 0.02 |
| GCAAAAAAAG | 0.96 ± 0.077 |

Reference: the supplement of paper PMC10126150
